The target in the assay is T1, CD3 epsilon homodimer protein (UniProt P07766 23-126).
T1 construct: also called CD3 (CD3 epsilon)
Nature of the assay: SPR, CD3e homodimer on chip.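 Also: surface plasmon resonance at 25 degrees C, antibodies flowed as analyte over CD3 epsilon homodimer amine-coupled to a CM4 chip, running buffer HBS-EP+.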

T1 sequence (P07766 23-126): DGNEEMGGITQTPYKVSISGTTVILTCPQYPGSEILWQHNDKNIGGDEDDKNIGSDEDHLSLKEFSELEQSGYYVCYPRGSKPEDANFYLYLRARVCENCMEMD

B1: GLS3000 L33A one-arm antibody (H chain CE115HA000) (antibody, human IgG1, kappa, L234A L235A, N297A, name in Kabat numbering)
heavy: QVQLVESGGGVVQPGRSLRLSCAASGFTFSNAWMHWVRQAPGKGLEWVAQIKAKSNNYATYYAESVKGRFTISRDDSKNSLYLQMNSLKTEDTAVYYCRYVHYGAYYGVDAWGQGTTVTVSSASTKGPSVFPLAPSSKSTSGGTAALGCLVKDYFPEPVTVSWNSGALTSGVHTFPAVLQSSGLYSLSSVVTVPSSSLGTQTYICNVNHKPSNTKVDKKVEPKSCDKTHTCPPCPAPEAAGGPSVFLFPPKPKDTLMISRTPEVTCVVVDVSHEDPEVKFNWYVDGVEVHNAKTKPREEQYASTYRVVSVLTVLHQDWLNGKEYKCKVSNKALPAPIEKTISKAKGQPREPQVYTLPPSRCELTKNQVSLSCAVKGFYPSDIAVEWESNGQPENNYKTTPPVLDSDGSFFLVSKLTVDKSRWQQGNVFSCSVMHEALHNHYTQKSLSLSPDYKDDDDK
chain: EPKSSDKTHTCPPCPAPELLGGPSVFLFPPKPKDTLMISRTPEVTCVVVDVSHEDPEVKFNWYVDGVEVHNAKTKPREEQYNSTYRVVSVLTVLHQDWLNGKEYKCKVSNKALPAPIEKTISKAKGQPREPQVCTLPPSRDELTKNQVSLWCLVKGFYPSDIAVEWESNGQPENNYKTTPPVLDSDGSFFLYSKLTVDKSRWQQGNVFSCSVMHEALHNRYTQKSLSLSP
light: DIVMTQSPLSLPVTPGEPASISCRSSQSLVHSNRNTYAHWYQQKPGQAPRLLIYKVSNRFSGVPDRFSGSGSGTDFTLKISRVEAEDVGVYYCGQGTQVPYTFGQGTKLEIKRTVAAPSVFIFPPSDEQLKSGTASVVCLLNNFYPREAKVQWKVDNALQSGNSQESVTEQDSKDSTYSLSSTLTLSKADYEKHKVYACEVTHQGLSSPVTKSFNRGEC
notes: one-arm antibody
As to B1, the “ratio of amounts bound (altered form / unaltered GLS3000 antibody)” value came out at 0.85.

B2: GLS3000 N28D one-arm antibody (H chain CE115HA000) (antibody, human IgG1, kappa, L234A L235A, N297A, name in Kabat numbering)
heavy: QVQLVESGGGVVQPGRSLRLSCAASGFTFSNAWMHWVRQAPGKGLEWVAQIKAKSNNYATYYAESVKGRFTISRDDSKNSLYLQMNSLKTEDTAVYYCRYVHYGAYYGVDAWGQGTTVTVSSASTKGPSVFPLAPSSKSTSGGTAALGCLVKDYFPEPVTVSWNSGALTSGVHTFPAVLQSSGLYSLSSVVTVPSSSLGTQTYICNVNHKPSNTKVDKKVEPKSCDKTHTCPPCPAPEAAGGPSVFLFPPKPKDTLMISRTPEVTCVVVDVSHEDPEVKFNWYVDGVEVHNAKTKPREEQYASTYRVVSVLTVLHQDWLNGKEYKCKVSNKALPAPIEKTISKAKGQPREPQVYTLPPSRCELTKNQVSLSCAVKGFYPSDIAVEWESNGQPENNYKTTPPVLDSDGSFFLVSKLTVDKSRWQQGNVFSCSVMHEALHNHYTQKSLSLSPDYKDDDDK
chain: EPKSSDKTHTCPPCPAPELLGGPSVFLFPPKPKDTLMISRTPEVTCVVVDVSHEDPEVKFNWYVDGVEVHNAKTKPREEQYNSTYRVVSVLTVLHQDWLNGKEYKCKVSNKALPAPIEKTISKAKGQPREPQVCTLPPSRDELTKNQVSLWCLVKGFYPSDIAVEWESNGQPENNYKTTPPVLDSDGSFFLYSKLTVDKSRWQQGNVFSCSVMHEALHNRYTQKSLSLSP
light: DIVMTQSPLSLPVTPGEPASISCRSSQSLVHSDRNTYLHWYQQKPGQAPRLLIYKVSNRFSGVPDRFSGSGSGTDFTLKISRVEAEDVGVYYCGQGTQVPYTFGQGTKLEIKRTVAAPSVFIFPPSDEQLKSGTASVVCLLNNFYPREAKVQWKVDNALQSGNSQESVTEQDSKDSTYSLSSTLTLSKADYEKHKVYACEVTHQGLSSPVTKSFNRGEC
notes: one-arm antibody
Consider B2, for which the “ratio of amounts bound (altered form / unaltered GLS3000 antibody)” value came out at 0.19.

B3: GLS3000 N28A one-arm antibody (H chain CE115HA000) (antibody, human IgG1, kappa, L234A L235A, N297A, name in Kabat numbering)
heavy: QVQLVESGGGVVQPGRSLRLSCAASGFTFSNAWMHWVRQAPGKGLEWVAQIKAKSNNYATYYAESVKGRFTISRDDSKNSLYLQMNSLKTEDTAVYYCRYVHYGAYYGVDAWGQGTTVTVSSASTKGPSVFPLAPSSKSTSGGTAALGCLVKDYFPEPVTVSWNSGALTSGVHTFPAVLQSSGLYSLSSVVTVPSSSLGTQTYICNVNHKPSNTKVDKKVEPKSCDKTHTCPPCPAPEAAGGPSVFLFPPKPKDTLMISRTPEVTCVVVDVSHEDPEVKFNWYVDGVEVHNAKTKPREEQYASTYRVVSVLTVLHQDWLNGKEYKCKVSNKALPAPIEKTISKAKGQPREPQVYTLPPSRCELTKNQVSLSCAVKGFYPSDIAVEWESNGQPENNYKTTPPVLDSDGSFFLVSKLTVDKSRWQQGNVFSCSVMHEALHNHYTQKSLSLSPDYKDDDDK
chain: EPKSSDKTHTCPPCPAPELLGGPSVFLFPPKPKDTLMISRTPEVTCVVVDVSHEDPEVKFNWYVDGVEVHNAKTKPREEQYNSTYRVVSVLTVLHQDWLNGKEYKCKVSNKALPAPIEKTISKAKGQPREPQVCTLPPSRDELTKNQVSLWCLVKGFYPSDIAVEWESNGQPENNYKTTPPVLDSDGSFFLYSKLTVDKSRWQQGNVFSCSVMHEALHNRYTQKSLSLSP
light: DIVMTQSPLSLPVTPGEPASISCRSSQSLVHSARNTYLHWYQQKPGQAPRLLIYKVSNRFSGVPDRFSGSGSGTDFTLKISRVEAEDVGVYYCGQGTQVPYTFGQGTKLEIKRTVAAPSVFIFPPSDEQLKSGTASVVCLLNNFYPREAKVQWKVDNALQSGNSQESVTEQDSKDSTYSLSSTLTLSKADYEKHKVYACEVTHQGLSSPVTKSFNRGEC
notes: one-arm antibody
B3: the “ratio of amounts bound (altered form / unaltered GLS3000 antibody)” value was 0.25.

B4: GLS3000 L33D one-arm antibody (H chain CE115HA000) (antibody, human IgG1, kappa, L234A L235A, N297A, name in Kabat numbering)
heavy: QVQLVESGGGVVQPGRSLRLSCAASGFTFSNAWMHWVRQAPGKGLEWVAQIKAKSNNYATYYAESVKGRFTISRDDSKNSLYLQMNSLKTEDTAVYYCRYVHYGAYYGVDAWGQGTTVTVSSASTKGPSVFPLAPSSKSTSGGTAALGCLVKDYFPEPVTVSWNSGALTSGVHTFPAVLQSSGLYSLSSVVTVPSSSLGTQTYICNVNHKPSNTKVDKKVEPKSCDKTHTCPPCPAPEAAGGPSVFLFPPKPKDTLMISRTPEVTCVVVDVSHEDPEVKFNWYVDGVEVHNAKTKPREEQYASTYRVVSVLTVLHQDWLNGKEYKCKVSNKALPAPIEKTISKAKGQPREPQVYTLPPSRCELTKNQVSLSCAVKGFYPSDIAVEWESNGQPENNYKTTPPVLDSDGSFFLVSKLTVDKSRWQQGNVFSCSVMHEALHNHYTQKSLSLSPDYKDDDDK
chain: EPKSSDKTHTCPPCPAPELLGGPSVFLFPPKPKDTLMISRTPEVTCVVVDVSHEDPEVKFNWYVDGVEVHNAKTKPREEQYNSTYRVVSVLTVLHQDWLNGKEYKCKVSNKALPAPIEKTISKAKGQPREPQVCTLPPSRDELTKNQVSLWCLVKGFYPSDIAVEWESNGQPENNYKTTPPVLDSDGSFFLYSKLTVDKSRWQQGNVFSCSVMHEALHNRYTQKSLSLSP
light: DIVMTQSPLSLPVTPGEPASISCRSSQSLVHSNRNTYDHWYQQKPGQAPRLLIYKVSNRFSGVPDRFSGSGSGTDFTLKISRVEAEDVGVYYCGQGTQVPYTFGQGTKLEIKRTVAAPSVFIFPPSDEQLKSGTASVVCLLNNFYPREAKVQWKVDNALQSGNSQESVTEQDSKDSTYSLSSTLTLSKADYEKHKVYACEVTHQGLSSPVTKSFNRGEC
notes: one-arm antibody
On to B4, for which the “ratio of amounts bound (altered form / unaltered GLS3000 antibody)” value amounted to 0.17.

The record behind these values is patent publication US20240270846A1 (published 2024).
